According to patent publication US20220227870A1 (Innovent, published 2022):
Read-outs that look alike come from different tables or passages of the source. Values belong to the binder of their own block, whether it stands above or below them.

Legend:
[1] = molecular target: T1, human CD47 expressed on the surface of cells (CHO-S-CD47 cells) (human, UniProt Q08722 19-323); experiment: FACS on CHO-S cells overexpressing human CD47, PE-conjugated anti-human Fc detection, MFI
T1 construct: whole, on cells; also called CHO-S cells overexpressing CD47; CHO-CD47
Procedure: (§1) The cell suspension was centrifuged at 400 g on a centrifuge for 5 minutes to remove the cell medium. […] The cell suspension was centrifuged at 400 g for 5 minutes, and then the supernatant was removed, and the cells were washed with PBS to remove the unbound antibodies. The obtained cell suspension was centrifuged at 400 g for 5 minutes to remove PBS. 100 μL of the solution of PE-conjugated anti-human Fc antibody (Jackson Immuno Research) diluted at a ratio of 1:200 was added to each well, and the cells were incubated in the dark on the ice for 30 minutes. Then the cell suspension was centrifuged at 400 g for 5 minutes and the supernatant was removed. The cells were washed with PBS to remove the unbound PE-conjugated anti-human Fc antibody. The cells were resuspended with 100 μL of PBS, and the binding of the antibodies to cells was assayed by FACS.

[2] = molecular target: T2, human 4-1BB expressed on the surface of cells (CHO-S-4-1BB cells) (human, UniProt Q07011 24-255); experiment: FACS on CHO-S cells overexpressing human 4-1BB, PE-conjugated anti-human Fc detection, MFI
T2 construct: whole, on cells; also called CHO-S cells overexpressing 4-1BB; CD137
T2 sequence (Q07011 24-255): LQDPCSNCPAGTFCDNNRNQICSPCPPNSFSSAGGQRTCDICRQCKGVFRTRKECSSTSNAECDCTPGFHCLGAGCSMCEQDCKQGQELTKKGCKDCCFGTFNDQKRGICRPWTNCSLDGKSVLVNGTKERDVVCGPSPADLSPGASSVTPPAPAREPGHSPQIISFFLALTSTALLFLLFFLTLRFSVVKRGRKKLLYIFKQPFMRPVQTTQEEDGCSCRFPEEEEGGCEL

[3] = molecular target: T3, human LAG-3 expressed on the surface of cells (293-LAG-3 cells) (human, UniProt P18627 23-525); experiment: FACS on HEK293 cells overexpressing human LAG-3, PE-conjugated anti-human Fc detection, MFI
T3 construct: whole, on cells; also called HEK293 cells overexpressing LAG-3; CD223
T3 sequence (looked up): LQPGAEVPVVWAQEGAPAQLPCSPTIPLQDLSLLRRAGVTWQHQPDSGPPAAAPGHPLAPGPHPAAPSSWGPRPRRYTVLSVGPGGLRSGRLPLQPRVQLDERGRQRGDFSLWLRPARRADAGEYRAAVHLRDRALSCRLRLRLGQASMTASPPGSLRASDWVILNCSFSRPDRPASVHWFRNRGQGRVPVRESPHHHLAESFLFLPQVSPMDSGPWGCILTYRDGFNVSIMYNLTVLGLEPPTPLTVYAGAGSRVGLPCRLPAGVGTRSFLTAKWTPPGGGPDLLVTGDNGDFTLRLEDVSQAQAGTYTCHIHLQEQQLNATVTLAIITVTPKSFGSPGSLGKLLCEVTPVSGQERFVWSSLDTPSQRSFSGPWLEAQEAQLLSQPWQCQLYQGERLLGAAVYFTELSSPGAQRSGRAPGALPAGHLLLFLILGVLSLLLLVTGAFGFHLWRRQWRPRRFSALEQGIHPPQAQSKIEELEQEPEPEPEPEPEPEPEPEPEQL

[4] = molecular target: T4, human PD-L1 expressed on the surface of cells (CHO-S-PD-L1 cells) (human, UniProt Q9NZQ7 19-290); experiment: FACS on CHO-S cells overexpressing human PD-L1, PE-conjugated anti-human Fc detection, MFI
T4 construct: whole, on cells; also called CHO-S cells overexpressing PD-L1; PD-L1 aAPC/CHO-K1 cells
T4 sequence (Q9NZQ7 19-290): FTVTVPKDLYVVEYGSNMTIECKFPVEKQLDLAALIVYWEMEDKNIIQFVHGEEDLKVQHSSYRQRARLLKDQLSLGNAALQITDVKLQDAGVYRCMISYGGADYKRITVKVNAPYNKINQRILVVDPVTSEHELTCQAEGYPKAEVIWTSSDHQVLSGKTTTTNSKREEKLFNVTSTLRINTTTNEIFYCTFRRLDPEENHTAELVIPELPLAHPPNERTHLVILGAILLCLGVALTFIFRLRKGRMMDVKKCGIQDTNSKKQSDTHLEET
Procedure: (§2) In short, CHO-S-PD-L1 cells were counted, and the cell suspension was diluted to 1×10⁶ cells/ml with cell medium, and then added to a U-bottom 96-well plate at 100 μl/well. The cell suspension was centrifuged at 400 g on a centrifuge for 5 minutes to remove the cell medium. […] The cell suspension was centrifuged at 400 g for 5 minutes, and then the supernatant was removed, and the cells were washed with PBS to remove the unbound antibodies. The obtained cell suspension was centrifuged at 400 g for 5 min to remove PBS. 100 μl of the solution of PE-conjugated anti-human Fc antibody (Jackson Immuno Research) diluted at a ratio of 1:200 was added to each well, and the cells were incubated in the dark on the ice for 30 min. Then the cell suspension was centrifuged at 400 g for 5 min and the supernatant was removed. The cells were washed with PBS to remove the unbound PE-conjugated anti-human Fc antibody. The cells were resuspended with 100 μl of PBS, and the binding of the antibodies to cells was assayed by FACS.

[5] = molecular target: T5, tumor cells H292 (ATCC), co-incubated with human red blood cells; experiment: flow cytometry; CFSE-labelled H292 cells co-incubated 1:20 with human red blood cells; antibody 0.370 nM
T5 construct: also called H292 cells
Procedure: (§3) The mixture was then gently added to 4 tubes each with 12.5 ml of FiColl (Thermo). The samples were centrifuged at 400 g for 30 min with zero deceleration. The upper serum and PBMC were removed to obtain red blood cells in the lowest layer.
(§4) Tumor cells H292 (ATCC) were fluorescently labeled with fluorochrome CFSE according to the instructions of CellTrace™ CFSE Cell Proliferation Kit (Invitrogen, catalog number: C34554). The labeled tumor cells were co-cultured with the aforementioned isolated human red blood cells at a ratio of 1:20 in terms of cell number, and meanwhile, tested antibody solutions of different concentrations were added. The cells were incubated at 4° C. for 30 min. […] The cells were washed at least twice with PBS and analyzed by flow cytometry.

[6] = molecular target: T5, tumor cells H292 (ATCC), co-incubated …; experiment: flow cytometry; CFSE-labelled H292 cells co-incubated 1:20 with human red blood cells; antibody 0.014 nM
Procedure: as §3, §4

[7] = molecular target: T1, human CD47 expressed on the surface of …; experiment: FACS on CHO-S cells overexpressing human CD47; antibody sample after 30 days at 40 C
Procedure: as §1

[8] = molecular target: T5, tumor cells H292 (ATCC), co-incubated …; experiment: flow cytometry; CFSE-labelled H292 cells co-incubated 1:20 with human red blood cells; antibody 0.041 nM
Procedure: as §4

[9] = molecular target: T5, tumor cells H292 (ATCC), co-incubated …; experiment: flow cytometry; CFSE-labelled H292 cells co-incubated 1:20 with human red blood cells; antibody 1.111 nM
Procedure: as §4

[10] = molecular target: T5, tumor cells H292 (ATCC), co-incubated …; experiment: flow cytometry; CFSE-labelled H292 cells co-incubated 1:20 with human red blood cells; antibody 0.123 nM
Procedure: as §4

[11] = molecular target: T6, h CD47 (Acrobiosystems) (human, UniProt Q08722 19-139); experiment: ForteBio Octet BLI; antibody loaded on AHC sensor, h CD47 100 nM in solution
T6 construct: Bought soluble antigen; also called CD47 protein in solution
Procedure: The anti-human IgG Fc biosensor AHC was immersed in each well containing the antibody solution, and immersed at room temperature for 600 seconds to load the samples. The sensor was then washed in SD buffer until it returned to the baseline, and then immersed in a well containing 100 μL of the antigen solution to monitor the association of the antibody with the antigen. The sensor was then transferred to a well containing 100 ul of SD buffer to monitor the antibody dissociation. The rotation speed was 400 rpm and the temperature was 30° C. The background-corrected association and dissociation curves were plotted by the Octet analysis software (ForteBio) to generate the association (k_{∞}) rate constant and dissociation (kdis) rate constant, which are then used to calculate the equilibrium dissociation constant (KD).

[12] = molecular target: T1, human CD47 expressed on the surface of …; experiment: FACS on CHO-S cells overexpressing human CD47; antibody sample of day 0
[13] = molecular target: T5, tumor cells H292 (ATCC), co-incubated …; experiment: flow cytometry; CFSE-labelled H292 cells co-incubated 1:20 with human red blood cells; antibody 10.000 nM
Procedure: as §3, §4

[14] = molecular target: T5, tumor cells H292 (ATCC), co-incubated …; experiment: flow cytometry; CFSE-labelled H292 cells co-incubated 1:20 with human red blood cells; antibody 3.333 nM
Procedure: as §3, §4

[15] = molecular target: T4, human PD-L1 expressed on the surface of …; experiment: FACS on CHO-S cells overexpressing human PD-L1, PE-conjugated anti-human Fc detection, MFI; remark: listed apart in the source
Procedure: as §2

binding result [1]: no binding (tested: about 300 nM)
B1: IgG1 Control (antibody, V domains shown)
VH: EVRLLESGGGLVQPGGSLRLSCAASGFTFSNYAMGWVRQAPGKGLEWVSAISGSGGSTYYADSVKGRFTTSRDDSKNALYLQMNSLRAEDTAVYYCARGGPGWYAADVWGQGTTVTVSS
VL: DIQMTQSPSSLSASVGDRVTITCRASQSISSYLNWYQQKPGKAPKLLIYAASSLQSGVPSRFSGSGSGTDFTLTISSLQPEDFATYYCQQADLPAFAFGGGTKVEIKR
notes: also called IgG1 negative control antibody

EC50 (read off the curve) [2]: ~1 nM
B2: anti-4-1BB antibody BMS-663513 (antibody, V domains shown)
VH: QVQLQQWGAGLLKPSETLSLTCAVYGGSFSGYYWSWIRQSPEKGLEWIGEINHGGYVTYNPSLESRVTISVDTSKNQFSLKLSSVTAADTAVYYCARDYGPGNYDWYFDLWGRGTLVTVSS
VL: EIVLTQSPATLSLSPGERATLSCRASQSVSSYLAWYQQKPGQAPRLLIYDASNRATGIPARFSGSGSGTDFTLTISSLEPEDFAVYYCQQRSNWPPALTFGGGTKVEIK
notes: also called parent antibody (anti-4-1BB)

EC50 (read off the curve) [3]: ~0.5 nM
B3: anti-LAG-3 antibody ADI-31853 (antibody, V domains shown)
VH: QLQLQESGPGLVKPSETLSLTCTVSGGSIYSESYYWGWIRQPPGKGLEWIGSIVYSGYTYYNPSLKSRVTISVDTSKNQFSLKLSSVTAADTAVYYCARVRTWDAAFDIWGQGTMVTVSS
VL: DIQMTQSPSSLSASVGDRVTITCQASQDISNYLNWYQQKPGKAPKLLIYDASNLETGVPSRFSGSGSGTDFTFTISSLQPEDIATYYCQQVLELPPWTFGGGTKVEIK
notes: also called parent antibody (anti-LAG-3)

EC50 (read off the curve) [3]: ~1 nM
EC50 (read off the curve) [4]: ~1 nM
B4: anti-LAG-3/PD-L1 bispecific antibody Kh2NF-PL (bispecific antibody, human IgG1, kappa, L234A L235A)
heavy: not shown
light: not shown
chain: QVQLQESGGGLVQPGGSLRLSCAASAYTISRNSMGWFRQAPGKGLEGVAAIESDGSTSYSDSVKGRFTISLDNSKNTLYLEMNSLRAEDTAVYYCAAPKVGLGPRTALGHLAFMTLPALNYWGQGTLVTVSSQVQLQESGGGLVQPGGSLRLSCAASAYTISRNSMGWFRQAPGKGLEGVAAIESDGSTSYSDSVKGRFTISLDNSKNTLYLEMNSLRAEDTAVYYCAAPKVGLGPRTALGHLAFMTLPALNYWGQGTLVTVSSDKTHTCPPCPAPEAAGGPSVFLFPPKPKDTLMISRTPEVTCVVVDVSHEDPEVKFNWYVDGVEVHNAKTKPREEQYNSTYRVVSVLTVLHQDWLNGKEYKCKVSNKALPAPIEKTISKAKGQPREPQVCTLPPSRDELTKNQVSLSCAVKGFYPSDIAVEWESNGQPENNYKTTPPVLDSDGSFFLVSKLTVDKSRWQQGNVFSCSVMHEALHNHYTQKSLSLSPG
notes: Triple-chain antibody; Fc with LALA and knob-in-hole mutations

proportion of antibody binding to H292 cells [5]: 44.5%
EC50 (read off the curve) [1]: ~2 nM
proportion of antibody binding to H292 cells [6]: 14.9%
EC50 (read off the curve) [7]: ~3 nM
proportion of antibody binding to H292 cells [8]: 82%
proportion of antibody binding to H292 cells [9]: 23%
proportion of antibody binding to H292 cells [10]: 88.5%
Kd [11]: 1.31 nM
koff [11]: 0.00155 s⁻¹
kon [11]: 1.18e+06 M⁻¹ s⁻¹
EC50 (read off the curve) [12]: ~2 nM
proportion of antibody binding to H292 cells [13]: 12.5%
proportion of antibody binding to H292 cells [14]: 12.1%
B5: anti-CD47/PD-L1 bispecific antibody Kh2NF-PC (bispecific antibody, human IgG1, kappa, L234A L235A)
heavy: not shown
light: DIQMTQSPSSVSASVGDRVTITCRASQGISRWLAWYQQKPGKAPKLLIYAASSLQSGVPSRFSGSGSGTDFTLTISSLQPEDFATYYCQQTVSFPITFGGGTKVEIKRTVAAPSVFIFPPSDEQLKSGTASVVCLLNNFYPREAKVQWKVDNALQSGNSQESVTEQDSKDSTYSLSSTLTLSKADYEKHKVYACEVTHQGLSSPVTKSFNRGEC
chain: QVQLQESGGGLVQPGGSLRLSCAASAYTISRNSMGWFRQAPGKGLEGVAAIESDGSTSYSDSVKGRFTISLDNSKNTLYLEMNSLRAEDTAVYYCAAPKVGLGPRTALGHLAFMTLPALNYWGQGTLVTVSSGGGGSGGGGSGGGGSGGGGSQVQLQESGGGLVQPGGSLRLSCAASAYTISRNSMGWFRQAPGKGLEGVAAIESDGSTSYSDSVKGRFTISLDNSKNTLYLEMNSLRAEDTAVYYCAAPKVGLGPRTALGHLAFMTLPALNYWGQGTLVTVSSDKTHTCPPCPAPEAAGGPSVFLFPPKPKDTLMISRTPEVTCVVVDVSHEDPEVKFNWYVDGVEVHNAKTKPREEQYNSTYRVVSVLTVLHQDWLNGKEYKCKVSNKALPAPIEKTISKAKGQPREPQVCTLPPSRDELTKNQVSLSCAVKGFYPSDIAVEWESNGQPENNYKTTPPVLDSDGSFFLVSKLTVDKSRWQQGNVFSCSVMHEALHNHYTQKSLSLSPG
notes: Triple-chain antibody (1+2 format)

EC50 (read off the curve) [15]: ~2 nM
EC50 (read off the curve) [2]: ~5 nM
B6: anti-4-1BB/PD-L1 bispecific antibody Kh2NF-P4 (bispecific antibody, human IgG1, kappa, L234A L235A)
heavy: not shown
light: not shown
chain: QVQLQESGGGLVQPGGSLRLSCAASAYTISRNSMGWFRQAPGKGLEGVAAIESDGSTSYSDSVKGRFTISLDNSKNTLYLEMNSLRAEDTAVYYCAAPKVGLGPRTALGHLAFMTLPALNYWGQGTLVTVSSGGGGSGGGGSGGGGSGGGGSQVQLQESGGGLVQPGGSLRLSCAASAYTISRNSMGWFRQAPGKGLEGVAAIESDGSTSYSDSVKGRFTISLDNSKNTLYLEMNSLRAEDTAVYYCAAPKVGLGPRTALGHLAFMTLPALNYWGQGTLVTVSSDKTHTCPPCPAPEAAGGPSVFLFPPKPKDTLMISRTPEVTCVVVDVSHEDPEVKFNWYVDGVEVHNAKTKPREEQYNSTYRVVSVLTVLHQDWLNGKEYKCKVSNKALPAPIEKTISKAKGQPREPQVCTLPPSRDELTKNQVSLSCAVKGFYPSDIAVEWESNGQPENNYKTTPPVLDSDGSFFLVSKLTVDKSRWQQGNVFSCSVMHEALHNHYTQKSLSLSPG
notes: as for B4

proportion of antibody binding to H292 cells [5]: 61.6%
EC50 (read off the curve) [1]: ~2 nM
proportion of antibody binding to H292 cells [6]: 1.41%
proportion of antibody binding to H292 cells [8]: 46.3%
proportion of antibody binding to H292 cells [9]: 41%
proportion of antibody binding to H292 cells [10]: 83.2%
Kd [11]: 1.07 nM
koff [11]: 0.00128 s⁻¹
kon [11]: 1.19e+06 M⁻¹ s⁻¹
EC50 (read off the curve) [12]: ~3 nM
proportion of antibody binding to H292 cells [13]: 11.3%
proportion of antibody binding to H292 cells [14]: 13.2%
B7: anti-CD47/PD-L1 bispecific antibody Kh2NF-PC-NL (bispecific antibody, human IgG1, kappa, L234A L235A)
heavy: not shown
light: DIQMTQSPSSVSASVGDRVTITCRASQGISRWLAWYQQKPGKAPKLLIYAASSLQSGVPSRFSGSGSGTDFTLTISSLQPEDFATYYCQQTVSFPITFGGGTKVEIKRTVAAPSVFIFPPSDEQLKSGTASVVCLLNNFYPREAKVQWKVDNALQSGNSQESVTEQDSKDSTYSLSSTLTLSKADYEKHKVYACEVTHQGLSSPVTKSFNRGEC
chain: QVQLQESGGGLVQPGGSLRLSCAASAYTISRNSMGWFRQAPGKGLEGVAAIESDGSTSYSDSVKGRFTISLDNSKNTLYLEMNSLRAEDTAVYYCAAPKVGLGPRTALGHLAFMTLPALNYWGQGTLVTVSSQVQLQESGGGLVQPGGSLRLSCAASAYTISRNSMGWFRQAPGKGLEGVAAIESDGSTSYSDSVKGRFTISLDNSKNTLYLEMNSLRAEDTAVYYCAAPKVGLGPRTALGHLAFMTLPALNYWGQGTLVTVSSDKTHTCPPCPAPEAAGGPSVFLFPPKPKDTLMISRTPEVTCVVVDVSHEDPEVKFNWYVDGVEVHNAKTKPREEQYNSTYRVVSVLTVLHQDWLNGKEYKCKVSNKALPAPIEKTISKAKGQPREPQVCTLPPSRDELTKNQVSLSCAVKGFYPSDIAVEWESNGQPENNYKTTPPVLDSDGSFFLVSKLTVDKSRWQQGNVFSCSVMHEALHNHYTQKSLSLSPG
notes: Triple-chain antibody without a linker between the two VHH; Fc with LALA and knob-in-hole mutations
